The chains are these.
B1: WRAIR-2039 LALA-PG (human IgG1 with the triple Fc mutation LALA-PG) (antibody, V domains shown)
VH: QVQLVQSGAEVKKPGASVKVSCKVSGYMLIELSMHWVRQAPGKGLEWMGGFDPEDAETIYAQEFQGRVTMTEDTSTDTAYMELSSLRSEDTAVYYCTTGPAVTNRPADYWGPGTLVTVSS
VL: QSVLTQPPSVSGAPGQRVTISCTGSSSNIGASYDVHWYQQLPGTAPKLLIYANSNRPSGVPDRFSGSKSGTSASLAITGLQAEDEADYYCQSYDSSLSYSVVFGGGTKLTVL
B2: WRAIR-2173 LALA-PG (human IgG1 with the triple Fc mutation LALA-PG) (antibody, V domains shown)
VH: QVQLQESGPGLVKPSETLSLTCSVSGDSISSSDYSWGWIRQPPGKGLEWIGTIYYIKNTYYNPSLRSRVTLSVDTSKNLFSLKLSSVTAADTAVYYCARERPPFDVVVVPAARPYNWFDPWGLGTLVIVSS
VL: B1 VL with T5M, S32G, A52G, S54N, E83D, Y99G, V101K
B3: WRAIR-2004 LALA-PG (human IgG1 with the triple Fc mutation LALA-PG) (antibody, V domains shown)
VH: QVQLVQSGAEVKKPGASVKVSCKASGYTFTGYYMHWVRQAPGQGLEWMGRINPSSGGTNYAQKFQGRVTMTRDTSISTAYMELSSLRSDDTAVYYCATDGDDGENWFDPWGQGTLVIVSS
VL: DIQMTQSPSSLSASVGDRVTITCRASQGISSWLAWYQQKPEKAPKSLIYAASSLQSGVPSRFSGSGSGTDFTLTISSLQPEDFATYYCQQYNSYPYTFGQGTKLEIK
B4: WRAIR-2025 LALA-PG (human IgG1 with the triple Fc mutation LALA-PG) (antibody, V domains shown)
VH: QVHLVQSGAEVKKPGASVKVSCKVSGYTLVELSVHWVRQAPAKGLEWIGGFDPEDGETIYAQKFQGRVTMTEDTSTDTAYMELTNLRSEDTAVYYCVTSQPFVSPNWFDPWGQGTLVTVSS
VL: QSALTQPASVSGSPGQSITISCTGTSRDVGAYNYVSWYQQHPGKAPKLMIYEVTTRPSGVSNRFSGSKSGNTASLTISGLQAEDEADYYCSSYTGSRTLVFGTGTKVTVL
B5: WRAIR-2123 LALA-PG (human IgG1 with the triple Fc mutation LALA-PG) (antibody, V domains shown)
VH: EVQLVESGGGVVQPGRSLRLSCAASGFTFSSYAMHWVRQAPGKGLEWVAVLSYDGSNKYNADSVKGRFTISRDNSKNTLYLQMNSLRVEDTAMYYCARDGVSVTMVRGVIGPLCDYWGQGTLVTVSS
VL: not shown

Positions count from the first letter of the chain named.

The assay has as its target SARS-CoV-2 S protein, full length (IL1/2020), on 293F-Spike-S2A cells (SARS-CoV-2, USA/IL1/2020 (S identical …, UniProt P0DTC2)). As to the kind of experiment: flow cytometry on cells. The settings on record: one partner purified. For orientation: Flow cytometry measures light scatter and fluorescence of single cells or particles in a stream.
Take B1: the binding result is listed as “binds”.

Consider B2, for which the binding result is “binds”. To B3 belongs “binds”.

Regarding B4, the binding result is on record as “binds”.

Take B5: the binding result is reported as “binds”.
